Target: F-4p-18mer-tail (synthetic fluorescein-labeled tetraphosphorylated PTEN C-tail peptide)
Experiment: fluorescence polarisation

fold weakening of the phospho-tail interaction against wild-type VSP: 3.4 fold
Substance: VSP Asp mutants of the active site Lys residues (Lys364 and Lys367) (domain or fragment)
